B1: scTCR CL-21753 (TCR)
chain: EDVEQSSFLSVREGDSAVINCTYTDASSTYFYWYKQEPGAGLQLLTYIFSNMDMKQDQRLTVLLNKKDKHLSLRIADTQTGDSAIYFCAVKDNARLMFGDGTQLVVKPGGGGSGGGGSGGGGSGGGGSGGGGSAVISQKPSRDIVQRGNSVTIQCQVDRPVTMMFWYRQQPGQSLTLIATAYDEGSATYESGFVIDKFPISRPNLTFSTLTVSNMSPEDSSIYLCSVLGAYGYTFGSGTRLTVV
B2: scTCR R76P1E1S with matured CDRb1 RPVTM (TCR)
chain: EDVEQSSFLSVREGDSAVINCTYTDSSSTYFYWYKQEPGAGLQLLTYIFSNMDMKQDQRLTVLLNKKDKHLSLRIADTQTGDSAIYFCAVKDNARLMFGDGTQLVVKPGGGGSGGGGSGGGGSGGGGSGGGGSGAVISQKPSRDIVQRGNSVTIQCQVDRPVTMMFWYRQQPGQSLTLIATANQGSEATYESGFVIDKFPISRPNLTFSTLTVSNMSPEDSSIYLCSVLGAYGYTFGSGTRLTVV

How the values were obtained:
[1] = target: HLA-A*02 tetramers with the 9 similar peptides (SimPeps, SEQ ID NOs: 59-67); experiment: yeast display, 9 similar peptides, 10 nM HLA-A*02 tetramer
[2] = target: HLA-A*02 tetramers with the 9 similar peptides (SimPeps, SEQ ID NOs: 59-67); experiment: yeast display, flow cytometry, SimPep tetramer mix, 25 nM each

Row | Binder | similar peptide binding, % positive cells [1] | yeast cells stained positive [2]
1 | B1 | 0% | 
2 | B2 |  | 0%
